Experimental findings from the nanobody polyreactivity screen of Harvey et al. (2022) are described below.

The data set can be described thus: yeast display, Sf9 membrane polyspecificity reagent, FACS + sequencing; frameworks hold sequencing errors. The essentials:
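Using colony PCR, genes from sorted yeast display clones were amplified, then sequenced on MiSeq at 2 × 250 and filtered by CDR length. The clones had been stained with 10% biotinylated, detergent-solubilized Sf9 membrane reagent for 1 hour at 4 °C and sorted by FACS into low and high (top ~1%) gates on anti-HA and streptavidin fluorescence. Polyreactivity labels come from the gate of origin.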
Turning to “QVQLVESGGGLVQAGGSLRLSCAASGSIFNINVMGWYRQAPGKEREMVAAINSGTSTYYADSVKGRFTISRDNAKNTVYLQMNSLKPEDTAVYYCAARNLFTGRRLFYYWGQGTQVTVSS”, the “polyreactivity (PSR sort gate)” value is reported as “low polyreactivity”.

Regarding “QVQLVESGGGLVQAGGSLRLSCAASGITFSRNARGGERQAPGQERELVATITSGGSTNYADSVKGRFTISRDNAKNTVYLQMNSLKPEDTAVFYCNAVWNTFISGRSYDYWGQGTQVTVSS”, the “polyreactivity (PSR sort gate)” value is on record as “low polyreactivity”.

For “QVQLVESGGGLVQAGGSLRLSCAASGSTFSVYAMGWYRQAPGKERELVATISWGGGITYYADSVKGRFTISRDNAKNTVYLQMNSLKPEDTAVYYCHSSKYGYWGQGTQVTVSS”, the “polyreactivity (PSR sort gate)” value is given as “high polyreactivity”.

For the sequence “QVQLVESGGGLVQAGGSLRLSCAASGRIFDWNTMGRYRQAPGKERELVAAISYEGSTYYADSVKGRFTISRDNAKNTVYLQMNSLKPEDTAVFYCNAYPLTQYFAQGYDYWGQGTQVTVSS”, the “polyreactivity (PSR sort gate)” value is recorded as “low polyreactivity”.

Take “QVQLVESGGGLVQAGGSLRLSCAASGSIFPDYAMGWYRQAPGKERELVAAIDTSTTDTYYADSVKGRFTISRDNAKNTVYLQMNSLKPEDTAVYYCAADAYDDPYGYWGQGTQVTVSS”: the “polyreactivity (PSR sort gate)” value is “high polyreactivity”.

For “QVQLVESGGGLVQAGGSLRLSCAASGRTFILNAMGWYRQAPGKERELVAAISWSGGSTYYADSVKGRFTISRDNAKNTVYLQMNCLKPEDTAVYYCAKRYVDPLGSGTHGSWGQGTQVTVSS”, the “polyreactivity (PSR sort gate)” value is reported as “low polyreactivity”.

For “QVQLVESGGGLVQAGGSLRLSCAASGSTLWFNAMGWYRQAPGKERELVAAINWSGGSTYYADSVKGRFTISRDNAKNTVYLQMNSLKPEDTAVYYCAAVYQYVHYVWYDYWGQGTQVTVSS”, the “polyreactivity (PSR sort gate)” value is reported as “low polyreactivity”.

For “QVQLVESGGGLVQAGGSLRLSCAASGFTFYLYTMGWYRQAPGKERELVATINSDGGTNYADSVKGRFTISRDNAKNSVYLQMNSLKPEDTAVYYCNAASRRGSRKQAKYEYWGQGTQVTVSS”, the “polyreactivity (PSR sort gate)” value is listed as “low polyreactivity”.

Regarding “QVQLVESGGGLVQAGGSLRLSCAASGSTLGLNAMGWYRKAPGKERELVAAISQSGTSTYYADSVKGRFTISRDNAKNTVYLQMNSLKPEDTAVYYCAVEYTQWWTYDYWGQGTQVTVSS”, the “polyreactivity (PSR sort gate)” value is on record as “low polyreactivity”.

For “QVQLVESRGGLVQAGGSLRLSCAASGRLFYSYAMGWNRQEPGKEREFVAAISRSGARTYYADSVKGRFTISRDNAKNTVYLQMNSLKPEDTAVYYCAADDFSTVEYDYWGQGTQVTVSS”, the “polyreactivity (PSR sort gate)” value was “low polyreactivity”.

In the case of “QVQLVESGGGLVQAGGSLRLSCAASGNTFDGNAMGWYRQAPGQERELVAAINYSGASTSYADSVKGRFTISRDNAKNTVYLQMNSLKREDTAVYYCAADYPPLYRKYDYWGHGTQVTVSS”, the “polyreactivity (PSR sort gate)” value is “low polyreactivity”.

With “QVQLVESGGGLVQAGGSLRLSCAASGFIFDYNAMGWYRQAPGKERELVAAISISGGGTYYADSVKGRFTISRDNAKNTVYLQMNSLKPEDTAVYYCATAGRYDAYDYWGQGTQVTVSS”, the “polyreactivity (PSR sort gate)” value is recorded as “low polyreactivity”.

As to “QVQLVESGGGLVQAAGSLRLSCAASGSIFSTYAMGWYRQAPGKERELVAAINRGTSTNYADSVKGRFTISRDNAKNTVYLQMNSLKPEDTAVYYCAAYYRGRYGPRRSEYWGQGTQVTVSS”, the “polyreactivity (PSR sort gate)” value is “high polyreactivity”.

Regarding “QVQLVESGGGLVQAGGSLRLSCAASGRTFGLYSMGWYRQAPGKVRELVASIDWSDDN”, the “polyreactivity (PSR sort gate)” value is recorded as “low polyreactivity”.

On to “QVQLVESGGGLVQAGGSLRLSSADSGLTIKYYAMGWYRQAPGKERELVASILQSGSSTYYADSVKGRFTISRDYAKNTFYLQMNSMKPEDTAVYYCSAPRYCRSYGYDYWGQGTQVTVSS”, for which the “polyreactivity (PSR sort gate)” value was “high polyreactivity”.

With “QVQLVESGGGLVQAGGSLRLSCAASGITFDSYAMGWNRQAPGKERELVAAISYSGGSTYYADSVKGRFTISRDNAKNTVYLQMNSLNPEDTAVYFCAAGSDDDYDYWGQGTQVTVSS”, the “polyreactivity (PSR sort gate)” value is “low polyreactivity”.

With “QVQLVESGGGLVQAAGSLRLSCAASVIIFGLYTMGWYRQAPGKERELVAAISDSGGRTYYADSVKGRFTISLDNAKNTVFLQMNSLKPEDTAVYYCAAEFWYVWEYNYWGQGTQVTVSS”, the “polyreactivity (PSR sort gate)” value is “high polyreactivity”.

Turning to “QVQLVESGGGLVQAGGSLRLSCAASGRIFRIYAMGWNRQAPGKERELVARLTYSGGSTYYADSVKGRFTISRDNAKNTVYLQMNSLKPEDTAVYYCAADWLGYQYGYWGQGTQVTVSS”, the “polyreactivity (PSR sort gate)” value was “low polyreactivity”.

Regarding “QVQHVESGGGLVQAGGSLRLSCAASGGIFYVNAMGWYRQEPGKERELVADITSDGVSKYYADSVKGRFTISRDNAKNTVYLQMNRLKPEDTAVYYCGGDNGGAGYYYGYVWYDYWGQGTQVTVSS”, the “polyreactivity (PSR sort gate)” value was “low polyreactivity”.

Turning to “QVQLVESAAGLVQAGGSLRLSCAASGGIFWVYAMGWYRQAPGKERELVAAISNSDTSTSDADSVKGRFTISRDTAKNTVYLQMYSLKPEDTAVYNCNGDSPSLSGDIWGQGTQVTVTS”, the “polyreactivity (PSR sort gate)” value is reported as “low polyreactivity”.

With “QVQLVESGGGLVQAGGSLRLTCAASGLIFPRYAMGWYRQAPGKERELVAAISRRGGSTRYADSVKGRFTISRDNAKNTVYLQMNSLKPEDTAVYYCAAPDFPKYYPTAYLQADEYWGQGTQVTVSS”, the “polyreactivity (PSR sort gate)” value is listed as “high polyreactivity”.

In the case of “QVQLVESGGGLVQAGGSLRLSCAASGFISPSNAMGWYRQAPGKERELVAAIRSSDGSTYYADSVKGRFTISRDNAKNTVYLQMNSLKPEDTAVYYCAAGGSYYRDDYWGQGTQVTVSS”, the “polyreactivity (PSR sort gate)” value is given as “low polyreactivity”.

For “QVQLVESGGGLVQAGGSLRLSCAAYGSTFGWYTMGWYRQAPGKERELVATISYGGGITNYADSVKGRFTISRDNAKITVYLQMNSLKPEDTADYDCAVDNTGRSWPYDYWGQGTQVTVSS”, the “polyreactivity (PSR sort gate)” value was “low polyreactivity”.

Turning to “QVQLVESGGGLVQAGGSLRLSCPASGNIFWWNARGWYRQAPGKERELVAAITSDSTTYYADSVKGRFTISRDNAKNTVYLQMNSLKPEDTAVYYCAAYSYGGQGVDYGYWGQGTQVTVSS”, the “polyreactivity (PSR sort gate)” value was “low polyreactivity”.

With “QVQLVESGGGLVQAGGSLRLSCAASGFTFRRYVMGWYRQAPGKERELVAAISSGGRTNYADSVKGRFTISRYNAKNTVYLQMNSLKPEDTAVYYCNKASTSYYRFNYWGQGTQVTVSS”, the “polyreactivity (PSR sort gate)” value is “high polyreactivity”.

Regarding “QVQLVESGGRLVQAGGSLRLSCAASGRIFDGNAMGWYRQAPGKERELVAAISWTGGSTYYADSVKGRFTISRDNAKNTVYLQMNSLKPEDTAVYYCAADSGWWLDQWSWYDYWGQGTQVTVSS”, the “polyreactivity (PSR sort gate)” value is recorded as “low polyreactivity”.

On to “QVQLVESGGGLVQAGGRLRLICAASARTLDRNAIGWYRQAPGEEREFVAAISSSGDSTYADSVKGRFTISRDNAKNTVYLQMNSLKPEDTAVYYCNAEEKVTYSASYFWVYDAMDHWGQGTQVTVSS”, for which the “polyreactivity (PSR sort gate)” value is “low polyreactivity”.

As to “QVQLVESGGGLVQAGGSLRLSCAASGITFGVYARGWYRQAPGKEREFVADIDRTRGSTYADSVKGRFTISRDNAMNTVYLQMNSLKPEDTAVYYCAAGWGFRFYYWYWGQGTHVTVSS”, the “polyreactivity (PSR sort gate)” value is on record as “high polyreactivity”.

As to “QVQLVESGGGLVQAGGSLRLSCAASGYIFTVYAMGWYRQAPGKERELVAAINWSDGSTYYADSVKGRFTISRDNAKNTVYLQMNSLKPEDTAVYYCAAESRYQRYDYWGQGTQVTVSS”, the “polyreactivity (PSR sort gate)” value is listed as “high polyreactivity”.

On to “QVQLVESGGGLVQAGGRLRLSCAASGSTFGYYAMGWNRQAPGKERELVAAISSRDGSTFYADSVKGRFTISRDNAKNTVFLQMNSLKPDDTAVYYCAKVFFHTPIVPEYDYCGQGTQVTVSS”, for which the “polyreactivity (PSR sort gate)” value is “low polyreactivity”.

Take “QVQLVESGGGLVQAGGSLRLSCAASGNILIGNVMGWYRQAPGKERELVAAITSGGDTYYADSVKGRFTISRDNAKNTVNLQMNSLKPEDTAVYYCAADRPGQPKYEYWGQGTQVTVSS”: the “polyreactivity (PSR sort gate)” value is reported as “low polyreactivity”.

For “QVQLVESGGGLVQAGGSLRLSCAASGLIFGRYAMGWYRQAPGKERELVAAINRNGGSTYYADSVKGRFTISRDNAKNTVYLQMNSLKPEDTAVYYCAAQYRSSRGHYDYWGQGTQVTVSS”, the “polyreactivity (PSR sort gate)” value is “high polyreactivity”.

As for “QVQLVESGGGLVQAGGSLRLSCAASGYNFPLYSMGWYTQAPGKERELVADINIGGASTYYADSVKGRFTISRDNAKNTVYLQMNSLKPEDTAVYDCAKEYFDGYFPTFDYDYWGKGTQVTVSS”, the “polyreactivity (PSR sort gate)” value is “low polyreactivity”.

As for “QVQLVESGGGLVEAGGSLRLSCAASGFIFGGYDMGWYRPAPGKQRELVAAITRSGGSTYYADSVKGRFTISRDNAKNTVYLEMNSLKPEDTAVYYCAAERQPYRTSSYNYWGQGTQVTVSS”, the “polyreactivity (PSR sort gate)” value is reported as “high polyreactivity”.

As for “QVQLVESGGGLVQAGGSLRLSCAASGSIFPTYAMGWYRQAPGKERELVAAISWDGDITYYADSVKGRFTISRDHAKNTVYLQMNSLKPEDTAVYYCNASLFIEIYSFQYDDHFAEYGYWGQGTQVTVSS”, the “polyreactivity (PSR sort gate)” value is on record as “high polyreactivity”.

Regarding “QVQLQESGGGLVQAGGSLRLSCAASGNISVTGFMGWYRQAPGKERELVASIGIGGTTYYADSVKGRFSISRDNAKNTVYLQINSLKPVDTAVYYCAARYLYYAYSYWGQGTQVTVRS”, the “polyreactivity (PSR sort gate)” value is recorded as “low polyreactivity”.

Turning to “QVQLVESVGGLDQAGGSLRLSCAASGRTFYRNAMGLYRQAPGKERELVSAITGSGGSTYYADSVKGRFTISRDNAKNTVYLQMNSLKPEDTAVYYCAAGTRIYNSLIGFDYWGQGTQVTVSS”, the “polyreactivity (PSR sort gate)” value is “high polyreactivity”.

With “QVQLVESGVGLVQAGGSLRLSCAASGRIFRGYAMGWYRQAPGKEREFVAAISWSGGDTYYADSVKGRFTISRDNAKNTVYLQMNSLKAEDTAVYYFATEYRLIPGPFVWPYDYWGQGTQVTVSS”, the “polyreactivity (PSR sort gate)” value is recorded as “high polyreactivity”.

Regarding “QDQLVESCGGLVQAGGSLRLSCASSGIIFVNYAMGWYRQAPGKERELVAAITTSGGSTYYADSVKGRFTISRDNAKNTVYLQMNCLKPEDTAVYYCAKISSLFKHVVRYDYWGQGTQVTVSS”, the “polyreactivity (PSR sort gate)” value was “low polyreactivity”.

On to “QDLLVESGAGLVQAGGSVRLSCAASGRIVYTYAMAWYRQAPGIERELVAVISSGGSTYYADSVKGRFTNSRDNAKNTVYLQMNSLTPEDTAVYYCAAYGTKWGRGFYITGYGYWGQGTQVTVSS”, for which the “polyreactivity (PSR sort gate)” value is on record as “low polyreactivity”.

On to “QVQLVETGGGLVQAGGSLRISCAPSGSTFAGYAMGWYRQAPGKERELVAAISYSGGTTYYADSVKGRFTISRDNAKNTVYLQMNSLKPEDTAVYYCAARKKYKTPSNDMYYWGQGTQVTVSS”, for which the “polyreactivity (PSR sort gate)” value was “high polyreactivity”.
